Biological target: GDF8, O14793
Assay: SPR (Biacore), anti-Fc capture of receptor; very low signal
Settings: remark: other sources report otherwise

GDF8, O14793, sequence (O14793 267-375 limits assumed): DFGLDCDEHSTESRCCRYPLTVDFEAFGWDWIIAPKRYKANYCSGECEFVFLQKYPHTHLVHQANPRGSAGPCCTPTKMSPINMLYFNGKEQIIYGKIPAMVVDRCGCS

Kd: 15 nM
koff: 0.0019 s⁻¹
kon: 130000 M⁻¹ s⁻¹
B1: ALK4-Fc homodimer, P36896 24-126 (Fc fusion, not shown: a dimerising Fc or GST)
chain: SGPRGVQALLCACTSCLQANYTCETDGACMVSIFNLDGMEHHVRTCIPKVELVPAGKPFYCLSSEDLRNTHCCYTDYCNRIDLRVPSGHLKEPEHPSMWGPVE
